Experimental data as given in article PMC10157173 (Frontiers in Immunology, 2023).

B1: matuzumab (antibody, V domains shown)
VH: QVQLVQSGAEVKKPGASVKVSCKASGYTFTSHWMHWVRQAPGQGLEWIGEFNPSNGRTNYNEKFKSKATMTVDTSTNTAYMELSSLRSEDTAVYYCASRDYDYDGRYFDYWGQGTLVTVSS
VL: DIQMTQSPSSLSASVGDRVTITCSASSSVTYMYWYQQKPGKAPKLLIYDTSNLASGVPSRFSGSGSGTDYTFTISSLQPEDIATYYCQQWSSHIFTFGQGTKVEIK
notes: heavy chain of matuzumab; light chain of matuzumab; also called 1Matu; anti-EGFR mAb; source: cloning, production and purification of mAbs at Icosagen; matuzumab also donated by Merck AG; copies: 2 + 2
B2: patritumab (antibody, V domains shown)
VH: QVQLQQWGAGLLKPSETLSLTCAVYGGSFSGYYWSWIRQPPGKGLEWIGEINHSGSTNYNPSLKSRVTISVETSKNQFSLKLSSVTAADTAVYYCARDKWTWYFDLWGRGTLVTVSS
VL: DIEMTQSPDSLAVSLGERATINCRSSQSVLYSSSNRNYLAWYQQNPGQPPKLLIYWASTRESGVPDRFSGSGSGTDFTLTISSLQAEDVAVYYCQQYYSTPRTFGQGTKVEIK
notes: heavy chain of patritumab; light chain of patritumab; also called 3Patri; anti-HER3 mAb; source: cloning, production and purification of mAbs at Icosagen; copies: 2 + 2
B3: elgemtumab (antibody, V domains shown)
VH: EVQLLESGGGLVQPGGSLRLSCAASGFTFSSYAMSWVRQAPGKGLEWVSAINSQGKSTYYADSVKGRFTISRDNSKNTLYLQMNSLRAEDTAVYYCARWGDEGFDIWGQGTLVTVSS
VL: DIQMTQSPSSLSASVGDRVTITCRASQGISNWLAWYQQKPGKAPKLLIYGASSLQSGVPSRFSGSGSGTDFTLTISSLQPEDFATYYCQQYSSFPTTFGQGTKVEIK
notes: heavy chain of elgemtumab; light chain of elgemtumab; also called 3Elgem; anti-HER3 mAb; source: cloning, production and purification of mAbs at Icosagen; copies: 2 + 2

Assays:
[1] = target: T1, His-tagged recombinant human EGFR ECD (Homo sapiens (Human)., UniProt P00533); experiment: ELISA; direct ELISA: His-tagged EGFR, HER2 or HER3 coated at 800 ng/ml in PBS on Maxisorp plates; two-fold or ten-fold dilutions of BiXAb™ or 1MAbs in PBS, 37°C, 1 h; detected with peroxidase-conjugated anti-human Fc; conditions: both partners purified
T1 construct: human EGFR, extracellular domain (ECD); see the supplier's catalogue entry; also called EGFR-His; source: bought: Sino Biological Inc (#10001-H08H)

[2] = target: T2, His-tagged recombinant human HER3 ECD (Homo sapiens (Human)., UniProt P21860); experiment: as above; conditions: both partners purified
T2 construct: human HER3, extracellular domain (ECD); see the supplier's catalogue entry; also called HER3-His; source: bought: Sino Biological Inc (#10201-H08H)

Binder	binding result [1]	binding result [2]
B1	binds	–
B2	–	binds
B3	–	binds
